# Reference: PMC12844804, “Paving the Way for CCK2R-Targeted Peptide Receptor Radionuclide Therapy with [^177Lu]Lu-DOTA-MGS5 in Patients with Small Cell Lung Cancer” (Pharmaceutics, 2026)
# Where two headings read alike, the source gives them in different places.
# What was measured:
# [1] = tested on: patients with advanced MTC; conditions: human, in vivo; cited from earlier work
# Protocol: So far, ^177Lu-labeled peptides targeting CCK2R have been used for PRRT in patients with advanced MTC. […] In a dose escalation study, six patients with advanced MTC were treated with up to three to four cycles of [^177Lu]Lu-PP-F11N (3 × 6 GBq or 4 × 8 GBq) ...
# [2] = human, in vivo
# Protocol: For dosimetry, both planar and SPECT/CT imaging were performed at nominal time points of 30 min and 4, 24, 72 and 96 h post-injection (p.i.). The acquisition protocol for the first three time points followed the procedure described above. For the 72 and 96 h scans, the dwell time per projection for SPECT acquisition was increased to 24 s, and the planar scan speed was reduced to 8 cm/min to compensate for the reduced count statistics at later time points. The gamma camera sensitivity was calibrated according to the GE Healthcare-recommended protocol (DICOM Conformance Statement: NM General Purpose 600/800 Series, Rev. 15, 2018). A Petri dish containing a known activity of lutetium-177 was used as the calibration source, yielding a calibration factor of 5.2 cps/MBq. To correct for partial volume effects (PVEs), recovery coefficients (RCs) were determined using an IEC-NEMA phantom with fillable spheres of varying diameters, and a Jaszczak phantom containing a 60 mm sphere (Data Spectrum Corporation, Hillsborough, NC, USA). For each sphere, RCs were calculated, and a logarithmic regression model was fitted to generate a recovery curve. Two selected well-delineable lesions were segmented on 24 h p.i. SPECT images using a 41% isocontour threshold in Affinity 3.0 (Hermes Medical Solutions, Stockholm, Sweden). Subsequently, SUVmax values normalized to body weight were computed and corrected for PVEs using the corresponding RCs. […] (Supplementary Figure S3A). […] Additionally, the mean absorbed dose to the tumor was 12.5 ± 10.2 Gy/GBq (range: 1.2-28 Gy/GBq) across five well-delineated lesions. The time-activity curves for kidneys, stomach wall and two selected lesions were fitted and extrapolated using non-linear regression. […] A tri-exponential function was used for the kidneys, while a bi-exponential model (with k3 = 0) was applied for the stomach wall and the two lesions. […]
# [3] = tested on: A431-CCK2R cells; assay type: cell-based, human; conditions: ~250 kBq, 2 nM/well; for relative viability: viability 72 h after treatment, % of non-irradiated control, n = 3
# Protocol: To investigate the cytotoxic effect of [^177Lu]Lu-DOTA-MGS5 on A431-CCK2R cells in comparison with EBRT, cells were counted using a TC20 automated cell counter (Bio-Rad Laboratories, Hercules, CA, USA), seeded at a density of 1 × 10^5 cells per well in 6-well plates and incubated at 37 °C with 5% CO2. After 24 h, cells were irradiated with varying doses (2, 4 and 8 Gy) using a linear accelerator (Elekta Precise, Elekta Oncology Systems, Crawley, England, UK) or by incubation with [^177Lu]Lu-DOTA-MGS5 (~250 kBq, 2 nM/well) for 4 and 24 h followed by replacement with fresh medium. Incubation periods of 4 h and 24 h were selected based on the previously established internalization kinetics and the stability data obtained for [^177Lu]Lu-DOTA-MGS5 [25]. At the time point of 72 h after treatment, cell viability was assessed using a Beckman Coulter Vi-CELL AS cell viability analyzer (Beckman Coulter, Fullerton, CA, USA). The supernatant from each well was collected in 15 mL Falcon tubes. Cells were then washed twice with 1 mL of serum-free medium, and the wash fractions were combined with the respective supernatants. Trypsin (300 µL) was added to each well, and plates were incubated until detachment. Following detachment, 1 mL of medium was added to each well, and cells were rinsed and transferred to their respective Falcon tubes. This washing step was repeated twice, reaching a total volume of 3 mL. Cells were pelleted by centrifugation in a benchtop centrifuge (Megafuge™ 8; Thermo Fisher Scientific, Waltham, MA, USA) at 2000 rpm for 8 min at 4 °C, and the supernatant was discarded. Pellets were resuspended in 1 mL of cold serum-free medium. Samples were loaded into the Vi-CELL AS analyzer according to the manufacturer’s instructions. The number of viable cells in each treatment group was normalized to the mean number of viable cells in the non-irradiated control group and expressed as a percentage of the control.
# [4] = tested on: A431-CCK2R cells; conditions: ~100 nM, 24 h treatment, 12 days colony formation, mean ± SD of four independent experiments in triplicate
# Protocol: After this treatment, the medium was aspirated and the cells were gently washed twice with phosphate-buffered saline (PBS) and then incubated at 37 °C for 12 days to allow colony formation. At the end of the incubation period, the culture medium was removed, and the wells were gently rinsed twice with PBS.
# Colonies were fixed by adding 1 mL of a 3:1 methanol–glacial acetic acid solution to each well and incubated for 20 min at room temperature in a chemical hood. The solution was removed and the fixed cells gently rinsed twice with 1 mL of PBS.
# Staining was performed using 1 mL of Giemsa stain (modified solution; Sigma-Aldrich, St. Louis, MO, USA, CAS No. 32884) diluted 3.5:10 in Milli-Q water. Plates were incubated with the staining solution for 2 h at room temperature. After staining, wells were rinsed twice with Milli-Q water, and plates were inverted on absorbent paper to air-dry.
# Colonies were counted manually, with each visible purple-stained cluster considered as one colony. […] Each data point represents the mean ± standard deviation (SD) of four independent experiments, each performed in triplicate.
# [5] = human, in vivo, iv; cited from earlier work
# Protocol: Due to disease progression observed at the radiologic follow-up examination during fourth-line treatment with topotecan (Figure 4a–f) and following confirmation of intense tracer uptake on [^68Ga]Ga-DOTA-MGS5 PET/CT, the patient underwent a preliminary dosimetric evaluation with [^177Lu]Lu-DOTA-MGS5 to calculate the absorbed dose to organs at risk and the tumor. After the intravenous administration of 1.5 GBq [^177Lu]Lu-DOTA-MGS5 (corresponding to a peptide dose of less than 100 µg), scintigraphic images were acquired at 30 min, 4 h, 24 h, 72 h and 96 h p.i. (Supplementary Figure S3A). As prev ...
# [6] = tested on: patient with ED-SCLC; assay type: in vivo, human
# Source text: A patient diagnosed with SCLC (initial stage: T4 N3 M1b with primary tumor of the left central lung and possible metastasis to the left adrenal gland) completed first-line systemic therapy with carboplatin/etoposide/atezolizumab (schedule: day 1–day 3, every three weeks) followed by maintenance therapy with atezolizumab and prophylactic cranial irradiation (fractions of 2 Gy each, reaching a total dose of 30 Gy; cognitive preservation with memantine). Subsequently, the entire primary tumor region, including the selectively involved lymph nodes on the left central side, was irradiated (fractions of 2 Gy, resulting in a total dose of 60 Gy). After completing EBRT approximately six months after diagnosis, the disease remained stable for the following four months. Ten months after diagnosis, a new metastasis to the right adrenal gland occurred, and re-induction therapy with carboplatin/etoposide/atezolizumab was administered (a total of four cycles; schedule: day 1–day 3, every three weeks). In the follow-up CT scan, progressive disease was identified again, and third-line therapy with cyclophosphamide/doxorubicin/vincristine was initiated (a total of four cycles; schedule: day 1–day 2, every three weeks). […] After 2 cycles, the disease again progressed. This time, there was progression of the primary tumor, liver metastases and new lymph node metastases. Thus, alternative image-guided treatment strategies were evaluated. […] Thus, the patient was considered eligible for PRRT with [^177Lu]Lu-DOTA-MGS5. PRRT was performed under the responsibility of the treating physician and after tumor board approval. According to the Austrian Medicines Act (Arzneimittelgesetz §8), named patient use (“Heilversuch”) was not subject to authorization by or notification to the authorities. Written informed consent was obtained from the patient. All procedures were in accordance with the principles of the 1964 Declaration of Helsinki and its subsequent amendments. The retrospective analysis of the data of the patient was exempted from consultation with the Ethics Committee by the Medical University of Innsbruck.
# Adequate hydration was ensured through intravenous infusion of 1000 mL of 0.9% saline solution at a rate of 300 mL/h, starting 30 min before and continuing for 2 h after treatment administration. The patient received prophylactic antiemetic therapy with 4 mg ondansetron, as well as 4 mg dexamethasone and 40 mg pantoprazole, given 20 min before the treatment. Prophylactic antiemetic therapy was repeated 12 h after therapy.
# [^177Lu]Lu-DOTA-MGS5 was administered intravenously via a dedicated peristaltic infusion pump system over a period of 15–20 min. The patient was discharged at the third day following therapy. The treatment was repeated approximately every four weeks.
# Whole-body SPECT/CT after each therapy cycle was performed using a dual-head SPECT/CT system (NM/CT 870 DR; GE Healthcare, Chicago, IL, USA) approximately 24 h after injection of [^177Lu]Lu-DOTA-MGS5. The acquisition consisted of 60 projections over 360° with an angular step of 6° and a dwell time of 20 s per projection. A medium-energy general-purpose collimator was used. The primary energy window was set to 187.2–228.8 keV and the scatter window to 169.1–186.9 keV. SPECT images were reconstructed using the manufacturer’s proprietary algorithms (OSEM with resolution recovery), using 2 iterations and 10 subsets and no post-reconstruction filtering. The reconstructed matrix size was 128 × 128, with a pixel size of 4.42 mm. Photon scatter correction was performed using the dual energy window method, and attenuation correction was performed using a low-dose CT scan acquired at 120 kVp, 30 mAs effective, with CareDose4D activated. Whole-body planar imaging was performed in anterior and posterior views using the same system. The scan was conducted in supine position, feet-first orientation. The table traversed 1.14 m at a speed of 10 cm/min. […]
compound,measurement,setting,value
"DOTA-(DGlu)6-Ala-Tyr-Gly-Trp-Nle-Asp-Phe-NH2 [[^177Lu]Lu-PP-F11N, ^177Lu-labeled CCK2R-targeting agonist]",dose-limiting toxicity,[1],without signs of dose-limiting toxicity
same,median absorbed tumor dose,[1],0.88 Gy/GBq
"CCCC[C@@H](C(=O)N[C@@H](CC(=O)O)C(=O)N[C@@H](Cc1cccc2ccccc12)C(N)=O)N(C)C(=O)[C@H](Cc1c[nH]c2ccccc12)NC(=O)CNC(=O)[C@H](Cc1ccc(O)cc1)NC(=O)[C@H](C)NC(=O)[C@@H](CCC(=O)O)NC(=O)CN1CCN(CC(=O)O)CCN(CC(=O)O)CCN(CC(=O)O)CC1 [[^177Lu]Lu-DOTA-MGS5, metal not drawn]","tracer clearance kinetics, CCK2R-positive stomach wall",[2],slower and more prolonged washout
same,"tracer clearance kinetics, kidneys",[2],rapid initial decline in activity
same,"tracer clearance kinetics, thoracic wall lesion and gastrointestinal tract lesion",[2],gradual mono-exponential decrease in activity
same,EBRT dose with comparable response,"[3]; 4 h and 24 h incubation, compared with EBRT 2, 4 and 8 Gy",2-4 Gy
same,relative viability,[3]; 4 h incubation,58.5 ± 3.3%
same,relative viability,[3]; 24 h incubation,55.5 ± 8.3%
same,clonogenic survival,[4]; 2 MBq/well,54.9 ± 10.9%
same,clonogenic survival,[4]; 250 kBq/well,82.7 ± 6.5%
same,absorbed dose to the bone marrow,[5],0.022 Gy/GBq
same,absorbed dose to the kidneys,[5],0.28 Gy/GBq
same,absorbed dose to the stomach,[5],0.42 Gy/GBq
same,"absorbed dose to the tumor, range",[5],1.2–28 Gy/GBq
same,mean absorbed dose to the tumor,[5],12.5 ± 10.2 Gy/GBq
same,change of SUVmax in two well-delineated lesions,"[6]; SPECT 24 h p.i., dosimetry and first three cycles, PVE corrected",only a minor decrease
same,uptake in new disseminated liver metastases,[6]; SPECT/CT after the fourth cycle,negative
same,clinical symptoms,[6]; after the second administration,improvement
same,lesion uptake on serial SPECT/CT after each treatment cycle,[6]; approximately 24 h p.i.,overall stable uptake
same,follow-up contrast-enhanced CT finding,[6]; at the fourth cycle of PRRT,continued disease progression
same,GGT,"[6]; human, in vivo",74 U/L
same,GOT,"[6]; human, in vivo",44 U/L
same,GPT,"[6]; human, in vivo",14 U/L
same,Karnofsky Index,"[6]; human, in vivo",100%
same,"absorbed dose delivered to the tumor lesions during PRRT, range","[6]; human, in vivo",21-482 Gy
same,"absorbed dose of healthy tissue, bone marrow","[6]; human, in vivo",0.4 Gy
same,"absorbed dose of healthy tissue, kidneys","[6]; human, in vivo",5 Gy
same,"absorbed dose of healthy tissue, stomach","[6]; human, in vivo",7 Gy
same,adverse effect following the first administration,"[6]; human, in vivo",mild nausea
same,creatinine,"[6]; human, in vivo",0.64 mg/dL
same,eGFR,"[6]; human, in vivo",> 60 mL/min/1.73 m^2
same,"hematological, renal or hepatic toxicities in laboratory tests","[6]; human, in vivo","no hematological, renal or hepatic toxicities"
same,mean absorbed dose delivered to the tumor lesions during PRRT,"[6]; human, in vivo",215 Gy
same,weight loss,"[6]; human, in vivo",approximately 2 kg
same,NSE levels,[6]; tumor marker during four administrations,slight reduction after the first three administrations but increased by the fourth administration
